Measurements taken from the supplement of paper PMC9876800.

Test system: peptide library, one residue held at a place counted from the S/T acceptor
Test: relative phosphorylation of the sub-library (ratio to the mean residue at this position); higher = residue favoured
Conditions: human
How it was run: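 In 384-well plates, purified recombinant kinases (human or orthologue constructs) were incubated for 90 min under kinase-specific conditions with 50 μM biotinylated degenerate peptide sub-libraries and 50 μM ATP spiked with γ-32P-ATP. Each sub-library fixed a single residue at one position around a central Ser/Thr. Relative sub-library phosphorylation, measured by phosphorimaging and densitometry of streptavidin membrane spots, is given as a ratio to the mean residue at that position.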

Chain of MYLK3, construct: aa490-end (Q32MK0 490-819, looked up): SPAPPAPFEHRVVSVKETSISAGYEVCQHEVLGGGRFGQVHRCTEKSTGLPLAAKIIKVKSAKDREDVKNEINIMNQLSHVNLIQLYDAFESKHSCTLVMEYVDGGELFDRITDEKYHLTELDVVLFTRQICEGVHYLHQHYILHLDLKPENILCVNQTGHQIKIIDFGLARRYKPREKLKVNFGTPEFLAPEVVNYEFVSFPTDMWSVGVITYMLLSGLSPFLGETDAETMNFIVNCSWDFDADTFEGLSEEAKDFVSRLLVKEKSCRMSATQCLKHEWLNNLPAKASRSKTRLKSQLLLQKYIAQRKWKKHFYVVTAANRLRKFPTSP

DYRK3, construct: Full length (from UniProt O43781)
relative phosphorylation
Conditions	at +1	at +2	at +3	at +4	at -1	at -2	at -3	at -4	at -5
A fixed	0.74	0.843	0.891	0.767	1.14	1.24	0.635	0.856	0.845
D fixed	0.16	0.894	0.621	0.723	0.447	0.181	0.404	0.698	0.663
E fixed	0.175	0.758	0.613	0.713	0.554	0.207	0.368	0.747	0.656
F fixed	0.266	1.19	1.12	1.31	0.777	0.378	0.422	0.876	1.07
G fixed	0.732	0.679	1.47	1.07	1.13	0.719	1.59	1.01	0.936
H fixed	0.3	1.2	1.27	1.16	0.991	0.556	0.621	0.945	1.12
I fixed	0.513	1.33	0.817	0.973	0.709	0.643	0.418	0.905	1.05
K fixed	0.494	0.7	0.727	0.926	1.42	0.746	0.92	1.1	1.11
L fixed	0.329	1.41	1.23	0.916	0.882	0.651	0.444	0.887	0.892
M fixed	0.337	1.41	1.21	1.35	1.22	0.67	0.467	0.903	0.84
N fixed	0.289	0.883	0.777	0.919	0.783	0.555	0.473	0.71	0.809
P fixed	8.02	0.703	1.93	0.889	1.27	1.93	0.514	0.886	0.898
Q fixed	0.442	0.889	0.834	0.932	1	0.583	0.518	0.688	0.742
R fixed	2.71	1.05	1.09	1.13	2.12	6.5	7.91	3.23	2.49
V fixed	0.987	1.1	0.661	0.785	0.726	0.724	0.357	0.664	0.716
W fixed	0.257	0.91	0.887	1.38	0.64	0.386	0.473	0.964	0.942
Y fixed	0.242	1.04	0.858	1.06	1.18	0.336	0.473	0.928	1.21
pThr fixed	0.328	1.44	0.549	0.977	0.353	0.349	0.492	0.812	0.954
pTyr fixed	0.363	0.759	0.769	0.815	0.735	0.287	0.542	0.74	1.15

MYLK3, construct: aa490-end (from UniProt Q32MK0)
relative phosphorylation
Conditions	at +1	at +2	at +3	at +4	at -1	at -2	at -3	at -4	at -5
A fixed	0.997	0.992	0.828	1	0.944	0.927	0.967	1.04	0.985
D fixed	0.753	0.819	0.786	0.983	0.851	0.585	0.67	0.758	0.72
E fixed	0.833	0.958	0.758	1.01	0.799	0.585	0.667	0.836	0.722
F fixed	0.951	1.06	1.43	1.02	0.964	0.641	0.71	0.904	0.919
G fixed	0.937	0.89	0.861	1.04	0.913	0.788	0.879	1.01	0.982
H fixed	0.922	0.995	0.943	1.07	1.03	1.09	0.884	0.976	0.987
I fixed	1.1	1.19	0.997	1.03	0.971	0.656	0.748	0.936	1.09
K fixed	1.25	0.972	0.81	0.941	1.09	1.44	1.41	1.42	1.29
L fixed	0.938	1	1.2	1.04	1.24	0.653	0.711	0.918	0.983
M fixed	1.18	1.02	0.953	0.932	1.2	0.711	0.756	0.991	1.04
N fixed	0.961	0.863	0.839	0.93	1.07	0.737	0.717	0.867	0.813
P fixed	0.786	0.899	0.876	1.18	0.956	0.778	0.933	1.01	1.11
Q fixed	1.1	0.887	0.786	0.937	0.949	0.762	0.77	0.902	0.85
R fixed	1.43	1.07	0.821	1	1.17	4.7	3.93	1.62	1.68
V fixed	1.12	1.19	0.889	0.943	0.972	0.668	0.773	1.01	1.01
W fixed	0.839	0.997	2.22	1.05	0.862	0.63	0.735	0.858	0.813
Y fixed	0.908	1.19	1	0.902	1.02	0.647	0.729	0.938	1
pThr fixed	1.12	1.06	0.774	1.08	0.769	0.637	0.724	0.809	0.728
pTyr fixed	0.83	1.06	0.883	1.02	0.882	0.644	0.994	0.844	0.798
